Marks after values point to notes of the source that are not given here.
B1: TesA: E. coli multifunctional acyl-CoA thioesterase I and protease I and lysophospholipase L1 (protein, UniProt P0ADA1 27-208, looked up)
Thioesterase 1/protease …: ADTLLILGDSLSAGYRMSASAAWPALLNDKWQSKTSVVNASISGDTSQQGLARLPALLKQHQPRWVLVELGGNDGLRGFQPQQTEQTLRQILQDVKAANAEPLLMQIRLPANYGRRYNEAFSAIYPKLAKEFDVPLLPFFMEEVYLKPQWMQDDGIHPNRDAQPFIADWMAKQLQPLVNHDS
B2: FadM: E. coli long-chain acyl-CoA thioesterase (protein, UniProt P77712 1-132, looked up)
Long-chain acyl-CoA …: MQTQIKVRGYHLDVYQHVNNARYLEFLEEARWDGLENSDSFQWMTAHNIAFVVVNININYRRPAVLSDLLTITSQLQQLNGKSGILSQVITLEPEGQVVADALITFVCIDLKTQKALALEGELREKLEQMVK
B3: TesB: E. coli thioesterase II (protein, UniProt P0AGG2 2-286, looked up)
Acyl-CoA thioesterase 2: SQALKNLLTLLNLEKIEEGLFRGQSEDLGLRQVFGGQVVGQALYAAKETVPEERLVHSFHSYFLRPGDSKKPIIYDVETLRDGNSFSARRVAAIQNGKPIFYMTASFQAPEAGFEHQKTMPSAPAPDGLPSETQIAQSLAHLLPPVLKDKFICDRPLEVRPVEFHNPLKGHVAEPHRQVWIRANGSVPDDLRVHQYLLGYASDLNFLPVALQPHGIGFLEPGIQIATIDHSMWFHRPFNLNEWLLYSVESTSASSARGFVRGEFYTQDGVLVASTVQEGVMRNHN
B4: YdiI: E. coli Acyl-CoA thioesterase (protein, UniProt P77781 1-136, looked up)
1,4-dihydroxy-2-naphthoyl-CoA …: MIWKRKITLEALNAMGEGNMVGFLDIRFEHIGDDTLEATMPVDSRTKQPFGLLHGGASVVLAESIGSVAGYLCTEGEQKVVGLEINANHVRSAREGRVRGVCKPLHLGSRHQVWQIEIFDEKGRLCCSSRLTTAIL
B5: YciA: E. coli acyl-CoA thioesterase (protein, UniProt P0A8Z0 1-132, looked up)
Acyl-CoA thioester hydrolase …: MSTTHNVPQGDLVLRTLAMPADTNANGDIFGGWLMSQMDIGGAILAKEIAHGRVVTVRVEGMTFLRPVAVGDVVCCYARCVQKGTTSVSINIEVWVKKVASEPIGQRYKATEALFKYVAVDPEGKPRALPVE
B6: YbgC: E. coli Acyl-CoA thioesterase (protein, UniProt P0A8Z3 1-134, looked up)
Acyl-CoA thioester hydrolase …: MNTTLFRWPVRVYYEDTDAGGVVYHASYVAFYERARTEMLRHHHFSQQALMAERVAFVVRKMTVEYYAPARLDDMLEIQTEITSMRGTSLVFTQRIVNAENTLLNEAEVLVVCVDPLKMKPRALPKSIVAEFKQ

Tests used:
[1] = thioesterase activity (production of TNB at 412 nm); type: biochemical; conditions: expressed from pCA24N; for Specific activities of selected thioesterases on Acetoacetyl-CoA / Specific activities of selected thioesterases on Acetyl-CoA / Specific activities of selected thioesterases on Butyryl-CoA / Specific activities of selected thioesterases on Crotonyl-CoA / Specific activities of selected thioesterases on RS-3-Hydroxybutyryl-CoA: crude cell extract, 200 μM substrate; for Specific Activity: Table 1
Excerpt: (§1) For AtoB and thioesterase characterization assays, the pCA24N-gene (-gfp) plasmids from the ASKA collection^44 were used. For expression of E. gracilis TER for kinetic characterization, the egTER gene was cloned into pTrcHis2A using the In-Fusion protocol (Clontech Laboratories, Inc., Mountain View, Calif.) following PCR amplification from the aforementioned codon-optimized egTER containing plasmid with the primer pair of F1pTH6hisEgter and R1pTH6hisEgter (Supplementary Table S3).
(§2) Cultures for enzymatic assays were grown overnight in 100 mL of LB media at 37° C. in 250 mL baffled flasks (Wheaton Industries, Inc., Millville, N.J.) in E. coli BL21 (DE3) cells induced with either 1 mM IPTG (pCA24N, pTrcHis2A) or 1 mM Arabinose (pUCBB-pBAD) at an OD600˜0.6, or expressed constitutively (pUCBB-ntH6). Reactions were monitored on either a Synergy HT plate reader (BioTek Instruments, Inc., Winooski, Vt.) at 25° C. (for reactions monitored at 300 nm or higher) or in a Biomate 5 Spectrophotometer (Thermo Scientific, Waltham, Mass.) for reactions at 263 nm.
(§3) For specific activity assays (reported in μmol substrate/mg protein/min) these supernatant fractions were utilized and protein concentration was established using the Bradford Reagent (Thermo Scientific, Waltham, Mass.) using BSA as the protein standard. Linearity was established for each reaction and the background non-enzymatic rate was subtracted to establish the activity.
For kinetic characterization, an appropriate amount of enzyme was established by checking linear range near predicted KM values. Then, the rates were measured for a range of substrates in order to establish kcat and KM. In the cases of FadB for the crotonase reaction and FadA in the “forward” thiolase reaction coupled with HBD, substrate saturation could not be established, as such, the kcat/KM for the reaction was determined by dividing the linear slope of Velocity vs. [Substrate] by the amount of enzyme used in the assays. For reactions that could be saturated, Velocity vs. [Substrate] was fitted by the EnzKIN Matlab module (mathworks.com/matlabcentral/fileexchange/26653) to establish Vmax and KM.
(§4) Thioesterase activity was monitored by following the production of TNB at 412 nm ([…])^30. Reactions were carried out in the presence of 100 mM Tris pH 7.5, 200 mM KCl, […] DTNB and 200 μM of the ‘-CoA’ substrate in a volume of 200 μL at 25° C.

[2] = as above; type: biochemical; conditions: crude cell extract; 200 μM substrate; expressed from pCA24N
Excerpt: as §1, §2, §3, §4

Molecule | Specific activities of selected thioesterases on Acetoacetyl-CoA [1] | Specific activities of selected thioesterases on Acetyl-CoA [1] | Specific activities of selected thioesterases on Butyryl-CoA [1] | Specific activities of selected thioesterases on Crotonyl-CoA [1] | Specific activities of selected thioesterases on RS-3-Hydroxybutyryl-CoA [1] | Specific activities of selected thioesterases on Decanyl-CoA [2] | Specific Activity ([1]; substrate Acetoacetyl-CoA) | Specific Activity ([1]; substrate Acetyl-CoA) | Specific Activity ([1]; substrate Butyryl-CoA) | Specific Activity ([1]; substrate Crotonyl-CoA) | Specific Activity ([1]; substrate RS-3-Hydroxybutyryl-CoA)
B1 | 0.044 ± 0.005 μmol/mg protein/min | 0.036 ± 0.002 μmol/mg protein/min | 0.049 ± 0.002 μmol/mg protein/min | 0.007 ± 0.003 μmol/mg protein/min | 0.02 ± 0.01 μmol/mg protein/min | 0.47 ± 0.04 μmol/mg protein/min |  |  |  |  | 
B2 | 0.042 ± 0.004 μmol/mg protein/min | 0.0331 ± 0.0006 μmol/mg protein/min | 0.027 ± 0.001 μmol/mg protein/min | 0.0017 ± 0.0003 μmol/mg protein/min | 0.009 ± 0.002 μmol/mg protein/min | 0.034 ± 0.003 μmol/mg protein/min |  |  |  |  | 
B3 | 0.056 ± 0.001 μmol/mg protein/min | 0.030 ± 0.001 μmol/mg protein/min | 0.101 ± 0.002 μmol/mg protein/min | 0.010 ± 0.001 μmol/mg protein/min | 0.032 ± 0.002 μmol/mg protein/min | 0.6 ± 0.1 μmol/mg protein/min |  |  |  |  | 
B4 | 0.047 ± 0.001 μmol/mg protein/min | 0.036 ± 0.003 μmol/mg protein/min | 0.0917 ± 0.0007 μmol/mg protein/min | 0.078 ± 0.005 μmol/mg protein/min | 0.012 ± 0.002 μmol/mg protein/min | 0.18 ± 0.04 μmol/mg protein/min |  |  |  |  | 
B5 | 0.672 ± 0.007 μmol/mg protein/min | 0.222 ± 0.007 μmol/mg protein/min | 2.9 ± 0.2 μmol/mg protein/min | 0.27 ± 0.03 μmol/mg protein/min | 0.441 ± 0.009 μmol/mg protein/min | 3.7 ± 0.3 μmol/mg protein/min | 0.672 ± 0.007^b μmol/mg/min | 0.222 ± 0.007^b μmol/mg/min | 2.9 ± 0.2^b μmol/mg/min | 0.27 ± 0.03^b μmol/mg/min | 0.441 ± 0.009^b μmol/mg/min
B6 | 0.065 ± 0.002 μmol/mg protein/min | 0.036 ± 0.002 μmol/mg protein/min | 0.045 ± 0.007 μmol/mg protein/min | 0.006 ± 0.001 μmol/mg protein/min | 0.016 ± 0.004 μmol/mg protein/min | 0.06 ± 0.02 μmol/mg protein/min |  |  |  |  | 
